In US20250075006A1 (SHANDONG SIMCERE BIOPHARMACEUTICAL, published 2025):
Where two headings read alike, the source gives them in different places. Blank lines part the entries; values can stand above or below the binder they belong to.

Legend:
[1] = biological target: T1, Human GUCY2C ECD (his-tagged human GUCY2C protein extracellular domain fusion protein) (human, UniProt P25092 24-430); assay: ELISA, plate coated with human GUCY2C-his, OD450
T1 construct: also called human GUCY2C-his; human GUCY2C-His
T1 sequence (P25092 other isoform, or with tags, fused parts or gaps): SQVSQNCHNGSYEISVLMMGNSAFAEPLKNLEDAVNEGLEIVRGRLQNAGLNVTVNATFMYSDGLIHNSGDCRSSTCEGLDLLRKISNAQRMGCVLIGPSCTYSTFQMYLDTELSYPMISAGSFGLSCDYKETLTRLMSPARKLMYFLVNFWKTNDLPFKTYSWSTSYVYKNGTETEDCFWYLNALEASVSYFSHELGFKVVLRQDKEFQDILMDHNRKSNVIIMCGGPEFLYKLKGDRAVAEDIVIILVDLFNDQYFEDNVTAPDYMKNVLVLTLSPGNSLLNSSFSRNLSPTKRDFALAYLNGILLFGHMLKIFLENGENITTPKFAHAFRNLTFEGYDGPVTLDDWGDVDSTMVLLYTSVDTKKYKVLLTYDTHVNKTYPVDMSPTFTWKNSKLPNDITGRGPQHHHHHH
Procedure: (§1) To assay the binding activity of the humanized antibodies to human GUCY2C-his protein, a human GUCY2C-his protein was diluted with PBS to a final concentration of 2 μg/mL and then added to a 96-well ELISA plate at 50 μL/well. The plate was sealed with a plastic film and incubated at 4° C. overnight. The next day, the plate was washed 2 times with PBST, and a blocking buffer [PBS+2% (w/w) BSA] was added for blocking at room temperature for 2 h. The blocking buffer was discarded, and the plate was washed 2 times with PBST. An antibody to be tested or a control antibody diluted in a 1:3 gradient from a starting concentration of 100 nM was added at 50 μL/well. After incubation at 37° C. for 1 h, the plate was washed 3 times with PBST. A horseradish peroxidase (HRP)—labeled secondary antibody (purchased from Merck, Cat. No. AP113P) was added for incubation at 37° C. for 1 h, and the plate was washed 5 times with PBST. A TMB substrate was added at 50 µL/well for incubation at room temperature for 5-10 min, and then a stop solution (1.0 M HCl) was added at 50 μL/well. OD450 nm values were read using an ELISA plate reader (Multimode Plate Reader, EnSight, purchased from Perkin Elmer).

[2] = biological target: T2, Cyno GUCY2C ECD (his-tagged cynomolgus monkey GUCY2C protein extracellular domain fusion protein) (cynomolgus monkey, UniProt P25092 24-430 (human entry)); assay: ELISA, plate coated with monkey GUCY2C-his, OD450
T2 construct: also called monkey GUCY2C-his; monkey GUCY2C-His
T2 chain: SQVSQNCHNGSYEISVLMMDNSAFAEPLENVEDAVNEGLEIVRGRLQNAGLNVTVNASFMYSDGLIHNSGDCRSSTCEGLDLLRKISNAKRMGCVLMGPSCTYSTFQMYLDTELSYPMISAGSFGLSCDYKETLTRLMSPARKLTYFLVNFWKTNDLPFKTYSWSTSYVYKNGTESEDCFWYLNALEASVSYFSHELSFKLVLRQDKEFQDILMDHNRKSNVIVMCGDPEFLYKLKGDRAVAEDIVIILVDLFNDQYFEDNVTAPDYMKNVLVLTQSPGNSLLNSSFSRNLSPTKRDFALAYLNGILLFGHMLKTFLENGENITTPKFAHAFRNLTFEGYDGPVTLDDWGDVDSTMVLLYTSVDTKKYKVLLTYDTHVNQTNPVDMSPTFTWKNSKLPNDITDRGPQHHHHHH

[3] = biological target: T1, Human GUCY2C ECD (his-tagged human …); assay: ELISA, plate coated with human GUCY2C-his, OD450; remark: listed apart in the source
Procedure: as §1

[4] = biological target: T1, Human GUCY2C ECD (his-tagged human …); assay: BLI Gator, antibody on anti-human Fc probe, antigen in solution
Procedure: (§2) Next, we measured the affinity of the recombinant antibody by another method, and the specific procedures were as follows: the binding strength of the antibody to the antigen was assayed by acquiring and analyzing the signal change of the reflection interference spectrum on the surface of the optical probe by using thin film interference technology. First, the probe was equilibrated for 300 s with HBS-T+pH 7.4 (0.02% tween) as the mobile phase. 2 μg/mL of the antibody to be tested was captured by an anti-human FC probe (purchased from ProbeLife, PL168-160003) for 240 s, and then antigen proteins with the concentration of 200 nM and diluted two-fold were injected. Kon for 300 s and Koff for 600 s. The association and dissociation processes of the antibody with the antigen protein were recorded, and finally, the chip was regenerated using Glycine pH 2.0 (purchased from GE), wherein the mobile phase was HBS-T+pH 7.4 (0.02% tween), the regeneration time was 5 s, and the assay temperature was 30° C. Finally, according to a 1:1 binding model, the data were analyzed, and the antibody-antigen binding kinetics parameters, including the association rate constant Ka, the dissociation rate constant Kd, the equilibrium dissociation constant KD, and the maximum binding signal Rmax, were fitted. The association rate (Ka), dissociation rate (Kd), and binding affinity (KD) of the recombinant antibodies with the human GUCY2C and monkey GUCY2C proteins are shown in Table 6.
(§3) After the finally obtained various humanized antibodies were expressed and purified, the affinities of the humanized antibodies for the human and monkey GUCY2C proteins were separately assayed according to the method in Example 4.6.

[5] = biological target: T2, Cyno GUCY2C ECD (his-tagged cynomolgus …); assay: as above
Procedure: as §2, §3

[6] = biological target: T1, Human GUCY2C ECD (his-tagged human …); assay: ELISA, plate coated with human GUCY2C-his, OD450; remark: listed apart in the source
Procedure: A human GUCY2C-his protein was diluted with PBS to a final concentration of 2 μg/mL and then added to a 96-well ELISA plate at 50 μL/well. The plate was sealed with a plastic film and incubated at 4° C. overnight. The next day, the plate was washed 2 times with PBST, and a blocking buffer [PBS+2% (w/w) BSA] was added for blocking at room temperature for 2 h. The blocking buffer was discarded, and the recombinant antibody and positive and negative control antibody with a starting concentration of 100 nM serially diluted by 3 folds were added at 50 μL/well. After incubation at 37° C. for 1 h, the plate was washed 3 times with PBST. A horseradish peroxidase (HRP)—labeled secondary antibody (purchased from Merck, Cat. No. AP113P) was added for incubation at 37° C. for 1 h, and the plate was washed 5 times with PBST. A TMB substrate was added at 50 μL/well for incubation at room temperature for 10 min, and then a stop solution (1.0 M HCl) was added at 50 μL/well. The OD450 nm values were read by an ELISA plate reader (Multimode Plate Reader, EnSight, purchased from Perkin Elmer).

[7] = biological target: T2, Cyno GUCY2C ECD (his-tagged cynomolgus …); assay: ELISA, plate coated with monkey GUCY2C-his, OD450

- EC50 (read off the curve) [1]: ~0.05 nM
- EC50 (read off the curve) [2]: ~0.05 nM
- EC50 (read off the curve) [3]: ~0.05 nM
- Kd [4]: 0.494 nM
- koff [4]: 0.000197 s⁻¹
- kon [4]: 400000 M⁻¹ s⁻¹
- Kd [5]: 0.256 nM
- koff [5]: 0.000138 s⁻¹
- kon [5]: 540000 M⁻¹ s⁻¹
- EC50 (read off the curve) [6]: ~0.09 nM
- EC50 (read off the curve) [7]: ~0.06 nM
B1: PF1608-hIgG1 (antibody, V domains shown)
VH: EVQLVESGGGLVQPGGSLRLSCAASGFTFSSYWMHWVRQAPGKGLEWIGEIKPSNELTNVHEKFKDRFTISVDKAKNSAYLQMNSLRAEDTAVYYCTRTITTTEGYWFFDVWGQGTLVTVSS
VL: DIQLTQSPSSLSASVGDRVTITCRASESVDYYGSSLLQWYQQKPGKAPKLLIYAASKLASGVPSRFSGSGSGTDFTLTISSLQPEDFATYYCQQTRKAYTFGQGTKLEIKR
notes: also called PF1608-hlgG1; positive control antibody

- EC50 (read off the curve) [1]: ~0.04 nM
- EC50 (read off the curve) [2]: ~0.03 nM
- EC50 (read off the curve) [3]: ~0.04 nM
- Kd [4]: 1.14 nM
- koff [4]: 0.000448 s⁻¹
- kon [4]: 391000 M⁻¹ s⁻¹
- Kd [5]: 0.998 nM
- koff [5]: 0.000486 s⁻¹
- kon [5]: 487000 M⁻¹ s⁻¹
- EC50 (read off the curve) [6]: ~0.05 nM
- EC50 (read off the curve) [7]: ~0.04 nM
B2: 5F9-hIgG1 (antibody, V domains shown)
VH: QVQLQQWGAGLLKPSETLSLTCAVFGGSFSGYYWSWIRQPPGKGLEWIGEINHRGNTNDNPSLKSRVTISVDTSKNQFALKLSSVTAADTAVYYCARERGYTYGNFDHWGQGTLVTVSS
VL: EIVMTQSPATLSVSPGERATLSCRASQSVSRNLAWYQQKPGQAPRLLIYGASTRATGIPARFSGSGSGTEFTLTIGSLQSEDFAVYYCQQYKTWPRTFGQGTNVEIKR
notes: also called positive control antibody
